No end group written: not given here.
T1: pVIc (C-terminal peptide of pVI) (Human adenovirus 2, UniProt P03274)
T1 chain: GVQSLKRRRCF

T2: 8-Actin-C (beta-actin C-terminal peptide)
T2 chain: SIVHRKC(Cy3B)F

T3: random peptide (scrambled pVIc) (synthetic)
T3 chain: SFRRCGLRQVK


Legend:
[1] = target: streptavidin-Alexa Fluor 546 (UniProt P22629 P22629:25-183); assay: FRET; streptavidin alone does not bind; conditions: tags: Alexa Fluor 546; Invitrogen; chain copies: 4; label: 5'-fluorescein
Source text: The relative fluorescence intensity is the fluorescence intensity at a specific concentration of acceptor divided by I₀ which is the initial fluorescence intensity, i.e. the intensity of the donor in the absence of acceptor. The line through the closed circles represents the nonlinear regression fit of the experimental data to a 1:1 ligand-receptor model. […] Both curves were corrected for inner filter effects, which were less than 10% at the highest concentration of acceptor.
Steady state fluorescence measurements were measured with an ISS PC1 spectrofluorometer (ISS, Champaign, Ill.) with a 300-W xenon arc lamp and 19 amp lamp current. […] The solution was mixed and allowed to equilibrate for 2 minutes before measuring the fluorescence intensity for a maximum of 10 seconds (corresponds to an average of eleven measurements).

[2] = target: (pVIc-biotin):streptavidin complex (Human adenovirus 2 / Streptomyces …, UniProt P03274;P22629 P03274:240-250,P22629:25-183); assay: FRET quenching, 20 mM Na phosphate pH 7.5, 0.05% DDM; conditions: tags: pVIc Cys10' PEG-biotin, streptavidin-Alexa Fluor 546 (Invitrogen); label: 5'-fluorescein
[3] = target: T1, pVIc (C-terminal peptide of pVI); assay: FP; Cy3B-pVIc, 20 mM Hepes pH 7, 0.025% DDM, 10 mM NaCl; 7 bp site; conditions: protein: synthetic; tags: synthetic peptide; Cy3B at Cys10' in pH 7 and sliding assays; label: 5'-fluorescein (unlabeled with Cy3B-labeled protein)
[4] = target: pVI (precursor to protein VI) (Human adenovirus 2, UniProt P03274 P03274:1-250); assay: FP; 0.02 M NaCl, pH 8; 155, 328, 449, 1044 nM at 0.03, 0.04, 0.05, 0.06 M NaCl; 2.9 ion pairs; conditions: label: 5'-fluorescein (unlabeled with Cy3B-labeled protein)
[5] = target: T2, 8-Actin-C (beta-actin C-terminal …); assay: FP; Cy3B-peptide, pH 7; conditions: protein: synthetic; tags: synthetic peptide; Cy3B at Cys7'; label: 5'-fluorescein (unlabeled with Cy3B-labeled protein)
[6] = target: T3, random peptide (scrambled pVIc); assay: FP; scrambled pVIc; does not slide on DNA; conditions: tags: Cy3B at Cys5'; label: 5'-fluorescein (unlabeled with Cy3B-labeled protein)

Sequence of pVI (precursor to protein VI) (P03274 whole entry, one chain of several): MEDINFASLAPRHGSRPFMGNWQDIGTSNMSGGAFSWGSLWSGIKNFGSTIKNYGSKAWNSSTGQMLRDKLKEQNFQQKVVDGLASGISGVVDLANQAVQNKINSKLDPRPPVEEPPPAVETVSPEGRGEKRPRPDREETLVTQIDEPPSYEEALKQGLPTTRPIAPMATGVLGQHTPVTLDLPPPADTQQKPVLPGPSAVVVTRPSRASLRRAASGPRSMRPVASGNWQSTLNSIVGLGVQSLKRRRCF
Sequence of (pVIc-biotin):streptavidin complex (P22629 25-183, one chain of several): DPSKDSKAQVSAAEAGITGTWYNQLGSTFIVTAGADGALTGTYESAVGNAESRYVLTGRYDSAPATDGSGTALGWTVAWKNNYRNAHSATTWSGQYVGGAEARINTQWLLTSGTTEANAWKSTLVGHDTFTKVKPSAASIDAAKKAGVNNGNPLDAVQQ
Sequence of streptavidin-Alexa Fluor 546 (P22629 25-183, one chain of several): as above

Binder | binding result [1] | Kd [2] [nM] | Kd [3] [nM] | Kd [4] [nM] | Kd [5] [nM] | Kd [6] [nM]
18-mer dsDNA (dsDNA) DNA 1: CAGGAAACAGCTATGACC DNA 2: GGTCATAGCTGTTTCCTG | no binding | 35 | – | – | – | –
12-mer dsDNA (dsDNA) DNA 1: GACGACTAGGAT DNA 2: ATCCTAGTCGTC | – | – | 264 | 55 | 5 | 646

— patent US20150210738, “MOLECULAR SLEDS AND USES […]” (The Broad Institute, Inc., published 2015)
